# Assay results published in the supplement of paper PMC9170038.
# Tested on: MS2 coat protein
# Test: apparent KD of MS2 coat protein; designed switch direction (-1 OFF switch, 1 ON switch): -1; higher = weaker reporter binding
# Method in brief: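 SNAP-549-labelled MS2 coat protein was titrated, doubling from 0.7 or 1.5 nM to 3 µM, over designed RNA switches transcribed on Illumina chips by stalled E. coli RNA polymerase. Runs were done without input, with 200 uM small-molecule ligand, or with an oligonucleotide input. Apparent KD is the per-design median over clusters of curve-fitted normalised fluorescence.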
# [1] = input ligand: microRNA oligo, concentration not stated
# [2] = Eterna round: R95, input ligand: microRNA oligo, concentration not stated
# [3] = Eterna round: R95, input ligand: FMN 200 uM
# [4] = Eterna round: R95, input ligand: none
Sequence,apparent KD of MS2 coat protein [1] [nM],apparent KD of MS2 coat protein (input ligand: FMN 200 uM) [nM],apparent KD of MS2 coat protein (input ligand: none) [nM],apparent KD of MS2 coat protein [2] [nM],apparent KD of MS2 coat protein [3] [nM],apparent KD of MS2 coat protein [4] [nM]
"AGAGAAUACUCAGGAUAUCUGAAUAGAAAGAGAAGAGAAGGGAGACAUGAGGAUCACCCAUGUGAAGUCUUGAGACUACAUGGU [Prohibition 27 - Jieux - Exclusion NG 1] (Eterna round: R96, puzzle: Exclusion NG 1)",225,–,–,–,–,–
"AGAGUGCUGCGAGGAUAUACAUGAGGAUCACCCAUGUUUUCCUGUGAGGCAAAGCCUCACAGGAUGUAGAAGGCGCAGUACUCA [Mat - Exclusion NG 2 - Mod of JL - D39] (Eterna round: R96, puzzle: Exclusion NG 2)",11.1,13.9,17.7,–,–,–
"AGAGUGCUGCGAGGAUAUACAUGAGGAUCACCCAUGUUUUCCUGUGAGGCUUUGCCUCACAGGAUGUAGAAGGCGCAGUACUCA [Mat - Exclusion NG 2 - Mod of JL - D38] (Eterna round: R96, puzzle: Exclusion NG 2)",9.65,9.32,13.1,–,–,–
AGAGUGUGAGGAUAUAUGGUGCAGAUGAAGGGAUAGAAGGAGUAGAAGGUACAUGAGGAUCACCCAUGUUAGGA [JR_Exclu4_Sub077] (puzzle: Exclusion 4),–,–,–,25.5,–,–
"AGAUAUCUAGGAUAUGCGUCGCGGAGGACUCCGAAGGGAGGACAUGAGGAUCACCCAUGUAGAAGGAGACAUUG [Eternabot (L2) Solution 38] (Eterna round: R97, puzzle: Exclusion 2)",–,46,45,–,–,–
"AGAUCACAUGAGGAUCACCCAUGUGAGGAUAUAGAUUCAAGAGCUUCGGCUCUACAGUCUAGAAGGCACUAUGA [EX1 #46] (Eterna round: R97, puzzle: Exclusion 1)",–,30.4,25.7,–,–,–
AGAUCACAUGAGGAUCACCCAUGUGAGGAUAUGAUACUAUGUACUUCGGUACAUAGUAUCAGAAGGCGCGUGAA [Ex1-3: 72] (puzzle: Exclusion 1),–,–,–,28.5,–,–
"AGAUCCACCGAGGAUAUUGGAGUGAUAUCACUCUAAGAAGGCGGUACAUGAGGAUCACCCAUGUGAUACCCAGA [Eternabot (Original) Solution 15] (Eterna round: R97, puzzle: Exclusion 6)",–,551,316,–,–,–
"AGAUCGUCAGGAUAUACAUGAGGAUCACCCAUGUAUAGUCUAAAUUUGACUAUAAGAUGUAGAAGGGACGAUCG [Exclusion 3 (MOD5 of #1 Marzena11)] (Eterna round: R97, puzzle: Exclusion 3)",–,75.8,21.4,–,–,–
"AGAUCUAGGACAGGAUAUACAGAUGGCUUCAUCGAAGAUGAAGCCAUUACAUGAGGAUCACCCAUGUAGAAGGGUCCUAGAUCA [Omei Exc(NG) 2Av5] (Eterna round: R96, puzzle: Exclusion NG 2)",12,17.7,14.2,–,–,–
"AGAUCUAGGACAGGAUAUACGGAUGUCUUCAUCGAAGAUGAAGACAUUACAUGAGGAUCACCCAUGUAGAAGGGUCCUAGAUCA [Omei Exc(NG) 2Av1] (Eterna round: R96, puzzle: Exclusion NG 2)",10.6,13.8,13.1,–,–,–
"AGAUCUAGGACAGGAUAUAUAGAUGGCUUCAUCGAAGAUGAAGCCAUUACAUGAGGAUCACCCAUGUAGAAGGGUCCUAGAUCA [Omei Exc(NG) 2Av7] (Eterna round: R96, puzzle: Exclusion NG 2)",14.3,11.2,16.1,–,–,–
"AGAUGCUCAAGUCGACAUGAGGAUCACCCAUGUACAAUUAACGAGGAUAUCCGAGAUAAAUAAUAGGAGAAGGCGUGAUCAUGA [Mat - Exclusion NG 3 - Mod of JL - D54] (Eterna round: R96, puzzle: Exclusion NG 3)",110,66.2,470,–,–,–
"AGAUGCUCGAGUCGACAUGAGGAUCACCCAUGUACAGUUAAUGAGGAUAUCUGAGACAAAUAGUAGGAGAAGGCGUGAACAUGA [Ex NG3 #11] (Eterna round: R96, puzzle: Exclusion NG 3)",68.6,191,90.9,–,–,–
AGAUGGCGAGGAUAUACAUGAGGAUCACCCAUGUGAAGAAUAAUAGUGAGGAAGAAAAGUAGAAGGCGCUGUCA [Mat - Exclusion 3 - Mod of Salish D33] (puzzle: Exclusion 3),–,–,–,37,–,–
AGAUGGCGAGGAUAUACAUGAGGAUCACCCAUGUGAAGAUAAAUAGUGAGGAAGAAAAGUAGAAGGCGCUGUCA [Mat - Exclusion 3 - Mod of Salish D27] (puzzle: Exclusion 3),–,–,–,58.6,–,–
AGAUGGCGAGGAUAUACAUGAGGAUCACCCAUGUGAGAUAAUAAAGUGAGGAAGAAAAGUAGAAGGCGCUGUCA [Mat - Exclusion 3 - Mod of Salish D13] (puzzle: Exclusion 3),–,–,–,53.7,221,56.8

Sequence,apparent KD of MS2 coat protein [1] [nM],apparent KD of MS2 coat protein (input ligand: FMN 200 uM) [nM],apparent KD of MS2 coat protein (input ligand: none) [nM],apparent KD of MS2 coat protein [2] [nM],apparent KD of MS2 coat protein [3] [nM],apparent KD of MS2 coat protein [4] [nM]
"AGAUGUUAAGAGGAUAUCAGCCGAAACCGGCAGUGAGAAGGCUUGACAUGAGGAUCACCCAUGUUUUGCGGUAA [Intebiabe] (Eterna round: R97, puzzle: Exclusion 6)",–,300,35.6,–,–,–
AGAUUACGAGGAUAUCGAUUUUAGUACAUGAGGAUCACCCAUGUUAUCCAGGUCUCGUUUCGAGAAGGCGUGAUUC [LRO-Ex5-07] (puzzle: Exclusion 5),–,–,–,196,–,–
"AGAUUACUGCGAGGAUAUACAUGAGGAUCACCCAUGUGGUGGUGUGAGGCAAAGCCUCACACCAUGUAGAAGGCGCAGUAAUCA [Mat - Exclusion NG 2 - Mod of JL - D22] (Eterna round: R96, puzzle: Exclusion NG 2)",23.3,150,44.5,–,–,–
"AGCAGUAGUAUCCGAUCCUACAUGAGGAUCACCCAUGUAGCUAGACGUGCACGCGAUGCUCGUCAGACUACCAGAUG [salish99_TOv1_r3_035] (puzzle: Sensor v3, turn-off variant 1)",–,–,–,200,119,195
AGCAUGCUAGGAUAUACGAAACAUUAGGGUUCUUUGUAUGAACAUGAGGAUCACCCAUGUAGAAGGAGCGUGCA [Mat - Exclusion 2 - Mod of Hyphema - D96] (puzzle: Exclusion 2),–,–,–,82.5,–,–
"AGCAUGUUAGGAUAUGCCAAAAUUAACCACGACUCAGUGAUGCAGAAGGAACAUGAGGAUCACCCAUGUGCUCC [Eternabot (L1) Solution 16] (Eterna round: R97, puzzle: Exclusion 4)",–,219,38.2,–,–,–
"AGCCACAGAGGAUAUACAUACAUCCAGUAGUAAAGAAUACUACAUGAGGAUCACCCAUGUAGAAGGCUGUGGCA [Omei Ex2 BD B13] (Eterna round: R97, puzzle: Exclusion 2)",–,308,86.4,–,–,–
"AGCCCUGCAGGAUAUGCCGAGGAUAACAUGAGGAUCACCCAUGUGACCGAUUGUUAGACUGCAGAAGGGCAUGGGA [salish99_ex5_r4_303] (Eterna round: R97, puzzle: Exclusion 5)",–,81.7,509,–,–,–
"AGCCUAGCAGGAUAUGCCCGGGAUAACAUGAGGAUCACCCAUGUGACUGAUUGAUGUCCUGCAGAAGGGCUAGGGA [JL-EX5-4.01 ViennaUCT mod] (Eterna round: R97, puzzle: Exclusion 5)",–,154,25.9,–,–,–
"AGCGAGGCAGGAUAUACAUGAGGAUCACCCAUGUGCUUGCAUGGCGUGGGACGUCAACGUAGAAGGGCCAUGCC [EX3 #68] (Eterna round: R97, puzzle: Exclusion 3)",–,76.3,117,–,–,–
"AGCGCCAUCGUGAGAUGGCGUAUUACAUGAGGAUCACCCAUGUAGGAUAUCGAUUGCUUUGCAGUCGAGAAGGACAUGUUCUUC [JL ENG3 3.80 Mod C] (Eterna round: R96, puzzle: Exclusion NG 3)",16,66,23.2,–,–,–
"AGCGCCAUCGUGAGAUGGCGUAUUACAUGAGGAUCACCCAUGUAGGAUAUCGAUUGCUUUGCAGUCGAGAAGGACAUGUUUUAG [JL ENG3 3.80 Mod E] (Eterna round: R96, puzzle: Exclusion NG 3)",69.4,200,74.3,–,–,–
"AGCUAGUGCCGAGGAUAUACAUGAGGAUCACCCAUGUAAGGCAGUCGGUUUCUGACUGCCAAUAUGUAGAAGGCGGCGUUGGCA [JL ENG2 1.48] (Eterna round: R96, puzzle: Exclusion NG 2)",15.8,45.4,15.7,–,–,–
"AGCUGAGCAGGAUAUACAUGAGGAUCACCCAUGUUGGUCAAGCGACGAUAGUCGCAAUGUAGAAGGGCUCAGCU [E3/8-D2] (Eterna round: R97, puzzle: Exclusion 3)",–,114,357,–,–,–
"AGCUGUGGCCGAGGAUAUACACAUGAGGAUCACCCAUGUAGGCGCGGAAACGCGCUAAAAGGGUUGUAGAAGGCGGUCUCAGCA [Eli eng2 - 054] (Eterna round: R96, puzzle: Exclusion NG 2)",165,471,114,–,–,–
"AGCUGUGGCCGAGGAUAUACAUGAGGAUCACCCAUGUUACAUAAUUAGGCCGGGUAACCGGCUCCGUAGAAGGCGGUCUCAGCA [Eli eng2 - 004] (Eterna round: R96, puzzle: Exclusion NG 2)",11.7,14.3,13.7,–,–,–
